From publication doi:10.1101/2024.09.06.611148

Molecular target: Alexa-647 NHS-labelled tubulin (UniProt P02550)
Assay: MST

Sequence of Alexa-647 NHS-labelled tubulin (P02550 whole entry, looked up): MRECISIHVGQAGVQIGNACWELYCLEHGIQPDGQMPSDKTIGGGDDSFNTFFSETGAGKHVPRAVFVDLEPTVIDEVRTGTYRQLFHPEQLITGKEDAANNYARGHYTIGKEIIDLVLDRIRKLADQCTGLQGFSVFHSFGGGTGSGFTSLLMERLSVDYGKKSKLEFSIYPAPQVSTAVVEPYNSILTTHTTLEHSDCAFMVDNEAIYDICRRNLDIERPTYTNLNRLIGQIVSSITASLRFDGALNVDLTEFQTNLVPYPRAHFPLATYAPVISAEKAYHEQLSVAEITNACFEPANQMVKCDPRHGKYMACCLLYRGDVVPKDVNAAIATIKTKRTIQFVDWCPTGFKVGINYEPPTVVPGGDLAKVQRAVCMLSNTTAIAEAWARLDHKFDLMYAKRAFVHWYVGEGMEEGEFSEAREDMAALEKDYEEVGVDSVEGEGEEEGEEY

recombinant HYC2 (GST-HYC2 or HYC2-6XHis) (from UniProt Q9FMI8 1-448) (natural protein)
Kd: 690 nM
